From PMC6745501, “Plant photoreceptors and their signaling components compete for COP1 binding via VP peptide motifs” (The EMBO Journal, 2019)
Several values for one entry are separate records, joined by “and”; a condition that tells them apart may be missing. Identical values can stand only once.

Columns and labels:
COP1 WD40 domain [1] = experiment: Grating-coupled interferometry (GCI) binding kinetics versus the COP1 WD40 domain; parameters: species or system Arabidopsis; settings: for Kd: ligand COP1 (2,000 pg/mm^2), analyte pre-monomerized by UV-B, highest concentration 2 μM, 150 mM NaCl, 20 mM HEPES 7.4, 2 mM BME, 25°C, 1:1 binding model, read-out: Kd (dissociation constant), + UV-B
Procedure: For CRY2 activation, proteins were diluted to their final assay concentrations (as indicated in the figure legends) in Eppendorf tubes and exposed to 10 min of fluorescent light on ice.
The Creoptix WAVE system (Creoptix AG), a label‐free surface biosensor, was used to perform GCI experiments. All experiments were performed on 2PCH or 4PCH WAVEchips (quasi‐planar polycarboxylate surface; Creoptix AG). After a borate buffer conditioning (100 mM sodium borate pH 9.0, 1 M NaCl; Xantec), COP1 (ligand) was immobilized on the chip surface using standard amine‐coupling: 7 min activation [1:1 mix of 400 mM N‐(3‐dimethylaminopropyl)‐N′‐ethylcarbodiimide hydrochloride and 100 mM N‐hydroxysuccinimide (both Xantec)], injection of COP1 (10 μg/ml) in 10 mM sodium acetate pH 5.0 (Sigma) until the desired density was reached, and final quenching with 1 M ethanolamine pH 8.0 for 7 min (Xantec). […] Blank injections were used for double referencing and a dimethyl sulfoxide (DMSO) calibration curve for bulk correction. Analysis and correction of the obtained data were performed using the Creoptix WAVEcontrol software (applied corrections: X and Y offset; DMSO calibration; double referencing), and a one‐to‐one binding model or a heterogenous ligand model with bulk correction was used to fit all experiments.

COP1 WD40 domain [2] = experiment: Analytical size-exclusion chromatography binding assay; parameters: species or system Arabidopsis; settings: Superdex 200 Increase 10/300 GL, ~4 μM per protein, 150 mM NaCl, 20 mM HEPES 7.4, 2 mM BME, protein pre-monomerized by UV-B
Procedure: 500 μl of the respective protein solution or a mixture (~ 4 μM per protein) was loaded sequentially onto the column, and elution at 0.75 ml/min was monitored by UV absorbance at 280 nm.

B1: UVR8^12–415: UVR8 core with C-terminus extended to include the VP peptide motif, residues 12–415 (protein)
chain: APPRKVLIISAGASHSVALLSGDIVCSWGRGEDGQLGHGDAEDRPSPTQLSALDGHQIVSVTCGADHTVAYSQSGMEVYSWGWGDFGRLGHGNSSDLFTPLPIKALHGIRIKQIACGDSHCLAVTMEGEVQSWGRNQNGQLGLGDTEDSLVPQKIQAFEGIRIKMVAAGAEHTAAVTEDGDLYGWGWGRYGNLGLGDRTDRLVPERVTSTGGEKMSMVACGWRHTISVSYSGALYTYGWSKYGQLGHGDLEDHLIPHKLEALSNSFISQISGGWRHTMALTSDGKLYGWGWNKFGQVGVGNNLDQCSPVQVRFPDDQKVVQVSCGWRHTLAVTERNNVFAWGRGTNGQLGIGESVDRNFPKIIEALSVDGASGQHIESSNIDPSSGKSWVSPAERYAVVPDETG
modifications: left off: His10, N-terminal, cleaved | Twin-Strep, N-terminal, cleaved
**Q.** For B1, which Kd (COP1 WD40 domain [1]) is on record?
**A.** 120 nM

B2: CRY2: recombinant full-length Arabidopsis cryptochrome 2 (protein)
chain: MKMDKKTIVWFRRDLRIEDNPALAAAAHEGSVFPVFIWCPEEEGQFYPGRASRWWMKQSLAHLSQSLKALGSDLTLIKTHNTISAILDCIRVTGATKVVFNHLYDPVSLVRDHTVKEKLVERGISVQSYNGDLLYEPWEIYCEKGKPFTSFNSYWKKCLDMSIESVMLPPPWRLMPITAAAEAIWACSIEELGLENEAEKPSNALLTRAWSPGWSNADKLLNEFIEKQLIDYAKNSKKVVGNSTSLLSPYLHFGEISVRHVFQCARMKQIIWARDKNSEGEESADLFLRGIGLREYSRYICFNFPFTHEQSLLSHLRFFPWDADVDKFKAWRQGRTGYPLVDAGMRELWATGWMHNRIRVIVSSFAVKFLLLPWKWGMKYFWDTLLDADLECDILGWQYISGSIPDGHELDRLDNPALQGAKYDPEGEYIRQWLPELARLPTEWIHHPWDAPLTVLKASGVELGTNYAKPIVDIDTARELLAKAISRTREAQIMIGAAPDEIVADSFEALGANTIKEPGLCPSVSSNDQQVPSAVRYNGSKRVKPEEEEERDMKKSRGFDERELFSTAESSSSSSVFFVSQSCSLASEGKNLEGIQDSSDQITTSLGKNGCK
modifications: left off: His10, N-terminal, cleaved | Twin-Strep, N-terminal, cleaved
**Q.** B2 was tested. Which “Binding to the COP1 WD40 domain in the absence of supplemental fluorescent light” value (COP1 WD40 domain [1]; ligand COP1 (2000 pg/mm2), analyte + no additional light, highest concentration 14 μM) did it give?
**A.** No binding was observed

B3: UVR8^12–381: UVR8 β-propeller core, residues 12–381 (protein, UniProt Q9FN03 12-381, looked up, fragment)
chain: APPRKVLIISAGASHSVALLSGDIVCSWGRGEDGQLGHGDAEDRPSPTQLSALDGHQIVSVTCGADHTVAYSQSGMEVYSWGWGDFGRLGHGNSSDLFTPLPIKALHGIRIKQIACGDSHCLAVTMEGEVQSWGRNQNGQLGLGDTEDSLVPQKIQAFEGIRIKMVAAGAEHTAAVTEDGDLYGWGWGRYGNLGLGDRTDRLVPERVTSTGGEKMSMVACGWRHTISVSYSGALYTYGWSKYGQLGHGDLEDHLIPHKLEALSNSFISQISGGWRHTMALTSDGKLYGWGWNKFGQVGVGNNLDQCSPVQVRFPDDQKVVQVSCGWRHTLAVTERNNVFAWGRGTNGQLGIGESVDRNFPKIIEALSVDG
**Q.** B3 was tested. Which “Interaction with the COP1 WD40 domain in size-exclusion chromatography, UV-B-activated” value (COP1 WD40 domain [2]) did it give?
**A.** interacts

**Q.** And the Kd (COP1 WD40 domain [1])?
**A.** ~500 nM and 583 nM
